# Data taken from US20240318156A1.
# T1: Recombinant human GM2 activator protein (GM2AP) containing an N-terminal 6×-histidine tag, P17900
# T1 chain: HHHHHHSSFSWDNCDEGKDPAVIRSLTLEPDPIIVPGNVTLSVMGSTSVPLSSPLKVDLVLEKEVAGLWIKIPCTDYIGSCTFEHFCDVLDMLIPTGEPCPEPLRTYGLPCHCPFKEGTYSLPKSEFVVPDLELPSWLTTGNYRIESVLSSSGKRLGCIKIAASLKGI
# Experiments:
# [1] = target: T1, Recombinant human GM2 activator protein …
# [2] = target: cation independent mannose 6-phosphate receptor (CI-MPR) (human) (UniProt P11717); assay: cell-based or functional assay
# Chain of UniProt P11717 (P11717 41-2491): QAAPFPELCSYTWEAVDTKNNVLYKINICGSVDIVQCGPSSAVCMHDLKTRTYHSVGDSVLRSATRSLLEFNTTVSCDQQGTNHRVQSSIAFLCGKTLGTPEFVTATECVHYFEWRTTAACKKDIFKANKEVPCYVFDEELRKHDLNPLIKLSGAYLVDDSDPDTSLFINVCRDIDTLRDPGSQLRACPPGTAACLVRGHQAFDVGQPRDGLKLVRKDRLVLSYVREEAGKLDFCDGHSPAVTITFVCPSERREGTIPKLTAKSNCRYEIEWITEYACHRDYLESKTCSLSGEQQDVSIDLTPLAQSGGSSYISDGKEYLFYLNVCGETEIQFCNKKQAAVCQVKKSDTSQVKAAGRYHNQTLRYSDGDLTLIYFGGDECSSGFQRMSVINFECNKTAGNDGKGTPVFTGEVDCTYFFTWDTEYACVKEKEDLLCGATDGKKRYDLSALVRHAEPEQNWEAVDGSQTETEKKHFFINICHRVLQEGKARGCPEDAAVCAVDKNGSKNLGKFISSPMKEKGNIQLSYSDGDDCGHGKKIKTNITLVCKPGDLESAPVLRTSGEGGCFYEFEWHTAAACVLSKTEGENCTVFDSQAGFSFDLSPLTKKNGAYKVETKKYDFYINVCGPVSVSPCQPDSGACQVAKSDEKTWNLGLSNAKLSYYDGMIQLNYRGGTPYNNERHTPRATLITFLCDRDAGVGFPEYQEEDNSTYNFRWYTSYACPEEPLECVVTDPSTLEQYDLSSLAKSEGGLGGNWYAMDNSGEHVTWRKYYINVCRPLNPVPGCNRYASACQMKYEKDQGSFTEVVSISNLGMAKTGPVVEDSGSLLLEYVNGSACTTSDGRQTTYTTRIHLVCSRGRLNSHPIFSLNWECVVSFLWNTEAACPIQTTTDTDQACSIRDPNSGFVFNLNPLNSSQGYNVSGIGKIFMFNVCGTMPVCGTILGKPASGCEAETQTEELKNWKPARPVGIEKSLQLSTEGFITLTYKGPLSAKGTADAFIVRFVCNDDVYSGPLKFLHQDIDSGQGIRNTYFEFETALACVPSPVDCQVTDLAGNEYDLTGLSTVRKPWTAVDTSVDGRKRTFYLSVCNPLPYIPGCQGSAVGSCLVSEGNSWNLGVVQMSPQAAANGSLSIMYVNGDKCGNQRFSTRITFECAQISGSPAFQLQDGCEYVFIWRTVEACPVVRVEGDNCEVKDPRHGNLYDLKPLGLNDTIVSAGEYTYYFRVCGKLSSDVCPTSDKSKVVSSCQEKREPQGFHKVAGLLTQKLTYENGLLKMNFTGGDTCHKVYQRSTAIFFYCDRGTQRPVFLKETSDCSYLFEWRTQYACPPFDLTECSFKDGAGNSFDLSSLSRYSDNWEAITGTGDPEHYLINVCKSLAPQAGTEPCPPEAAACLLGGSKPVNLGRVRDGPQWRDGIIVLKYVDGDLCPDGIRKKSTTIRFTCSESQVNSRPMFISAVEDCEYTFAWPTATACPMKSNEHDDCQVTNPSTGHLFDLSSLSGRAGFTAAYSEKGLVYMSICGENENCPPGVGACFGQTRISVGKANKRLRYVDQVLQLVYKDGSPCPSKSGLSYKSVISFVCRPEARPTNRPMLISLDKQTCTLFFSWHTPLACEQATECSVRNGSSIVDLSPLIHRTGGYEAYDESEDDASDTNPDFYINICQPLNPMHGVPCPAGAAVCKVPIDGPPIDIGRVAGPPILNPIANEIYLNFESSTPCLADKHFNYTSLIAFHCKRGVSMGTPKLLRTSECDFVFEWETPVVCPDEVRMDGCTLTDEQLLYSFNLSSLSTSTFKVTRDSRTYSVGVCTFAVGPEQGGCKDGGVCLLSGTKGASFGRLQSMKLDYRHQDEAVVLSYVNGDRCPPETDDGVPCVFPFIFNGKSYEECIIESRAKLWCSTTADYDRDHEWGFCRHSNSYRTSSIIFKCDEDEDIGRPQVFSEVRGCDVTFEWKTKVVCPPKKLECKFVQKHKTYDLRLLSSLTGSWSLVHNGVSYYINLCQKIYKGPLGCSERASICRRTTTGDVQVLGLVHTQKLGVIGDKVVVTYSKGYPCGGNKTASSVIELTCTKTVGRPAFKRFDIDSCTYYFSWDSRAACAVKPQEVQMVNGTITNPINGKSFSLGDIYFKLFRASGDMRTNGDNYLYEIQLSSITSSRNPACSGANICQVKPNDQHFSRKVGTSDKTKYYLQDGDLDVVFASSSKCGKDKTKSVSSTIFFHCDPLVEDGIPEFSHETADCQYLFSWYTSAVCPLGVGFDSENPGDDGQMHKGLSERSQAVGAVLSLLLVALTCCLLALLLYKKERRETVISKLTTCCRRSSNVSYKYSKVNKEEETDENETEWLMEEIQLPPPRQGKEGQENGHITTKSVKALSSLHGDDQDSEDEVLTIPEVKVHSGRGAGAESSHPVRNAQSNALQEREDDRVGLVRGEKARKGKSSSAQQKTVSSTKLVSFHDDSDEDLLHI
Binder,K uptake (nM) MUG activity [2],GM2AP-dependent kinetics of GM2 hydrolysis [1],"Km (Kinetic data of FIG. 2, GM2AP-dependent GM2 degradation) [1]",Km GM2AP [1],"Km [GM2AP], µM (GM2AP-dependent GM2 hydrolysis, natural substrate assay) [1]"
HexD3 (Modified α/α homodimer) (protein) ARAPSVSAKPGPALWPLPLSVKMTPNLLHLAPENFYISHSPNSTAGPSCTLLEEAFRRYHGYIFGFYKWHHEPAEFQAKTQVQQLLVSITLQSECDAFPNISSDESYTLLVKEPVAVLKANRVWGALRGLETFSQLVYQDSYGTFTINESTIIDSPRFPHRGLLLDTSRHYLPLKSILDTLDVMAYNKLNVFHWHLVDDQSFPYESFTFPELMRKGSYSLSHIYTAQDVKEVIEYARLRGIRVLAEFDTPGHTLSWGPGIPGLLTPCYSGSEPSGTFGPVNPSLNNTYEFMSTFFLEVSSVFPDFYLHLGGDEVDFTCWKSNPEIQDFMRKKGFGEDFKQLESFYIQTLLDIVSSYGKGYVVWQEVFDNKVKIQPDTIIQVWREDIPVNYMKELELVTKAGFRALLSAPWYLNRISYGQDWRKFYKVEPLAFEGTPEQKALVIGGEACMWGEYVDATNLVPRLWPRAGAVAERLWSNKLTRDMDDAYDRLSHFRCELVRRGVAAQPLYAGYCNQEFEQT,5.8 nM,,13.7 µM,13.7 µM,13.7 µM
Mod2B (Modified β/β homodimer) (protein) TQVQQLLVSITLQSECDAFPNISSDESYTLLVKEPVAVLKANRVWGALRGLETFSQLVYQDSYGTFTINESTIIDSPRFSHRGILIDTSRHYLPVKIILKTLDAMAFNKFNVLHWHIVDDQSFPYQSITFPELSNKGSYSLSHVYTPNDVRMVIEYARLRGIRVLPEFDTPGHTLSWGKGQKDLLTPCYSGSEPSGTFGPINPTLNTTYSFLTTFFKEISEVFPDQFIHLGGDEVEFKCWESNPKIQDFMRQKGFGTDFKKLESFYIQKVLDIIATINKGSIVWQEVFDDKAKLAPGTIVEVWKDSAYPEELSRVTASGFPVILSAPWYLNRISYGQDWRKYYKVEPLDFGGTQKQKQLFIGGEACLWGEYVDATNLTPRLWPRASAVGERLWSSKDVRDMDDAYDRLTRHRCRMVERGIAAQPLYAGYCNHENM,,GM2AP binding kinetics to the Hex homodimers was comparable to the wild type heterodimer,20.4 µM,,20.4 µM

# More lines, main results first:
K uptake (nM) MUG activity [2],Binder,GM2AP-dependent kinetics of GM2 hydrolysis [1],"Km (Kinetic data of FIG. 2, GM2AP-dependent GM2 degradation) [1]",Km GM2AP [1],"Km [GM2AP], µM (GM2AP-dependent GM2 hydrolysis, natural substrate assay) [1]"
130 nM,HexM (Modified α/α homodimer) (protein) TLEKNVLVVSVVTPGCNQLPTLESVENYTLTINDDQCLLLSETVWGALRGLETFSQLVWKSAEGTFFINKTEIEDFPRFPHRGLLLDTSRHYLPLKSILDTLDVMAYNKLNVFHWHLVDDQSFPYESFTFPELMRKGSYSLSHIYTAQDVKEVIEYARLRGIRVLAEFDTPGHTLSWGPGIPGLLTPCYSGSEPSGTFGPVNPSLNNTYEFMSTFFLEVSSVFPDFYLHLGGDEVDFTCWKSNPEIQDFMRKKGFGEDFKQLESFYIQTLLDIVSSYGKGYVVWQEVFDNKVKIQPDTIIQVWREDIPVNYMKELELVTKAGFRALLSAPWYLNRISYGQDWRKFYKVEPLAFEGTPEQKALVIGGEACMWGEYVDATNLVPRLWPRAGAVAERLWSNKLTRDMDDAYDRLSHFRCELVRRGVAAQPLYAGYCNQEFEQT,GM2AP binding kinetics to the Hex homodimers was comparable to the wild type heterodimer,19.6 µM,19.6 µM,19.6 µM
3.3 nM,HexA (wild-type; α/β heterodimer) (protein) chain 1: TLEKNVLVVSVVTPGCNQLPTLESVENYTLTINDDQCLLLSETVWGALRGLETFSQLVWKSAEGTFFINKTEIEDFPRFPHRGLLLDTSRHYLPLSSILDTLDVMAYNKLNVFHWHLVDDPSFPYESFTFPELMRKGSYNPVTHIYTAQDVKEVIEYARLRGIRVLAEFDTPGHTLSWGPGIPGLLTPCYSGSEPSGTFGPVNPSLNNTYEFMSTFFLEVSSVFPDFYLHLGGDEVDFTCWKSNPEIQDFMRKKGFGEDFKQLESFYIQTLLDIVSSYGKGYVVWQEVFDNKVKIQPDTIIQVWREDIPVNYMKELELVTKAGFRALLSAPWYLNRISYGPDWKDFYIVEPLAFEGTPEQKALVIGGEACMWGEYVDNTNLVPRLWPRAGAVAERLWSNKLTSDLTFAYERLSHFRCELLRRGVQAQPLNVGFCEQEFEQT chain 2: ARAPSVSAKPGPALWPLPLSVKMTPNLLHLAPENFYISHSPNSTAGPSCTLLEEAFRYHGYIFGFYKWHHEPAEFQAKTQVQQLLVSITLQSECDAFPNISSDESYTLLVKEPVAVLKANRVWGALRGLETFSQLVYQDSYGTFTINESTIIDSPRFSHRGILIDTSRHYLPVKIILKTLDAMAFNKFNVLHWHIVDDQSFPYQSITFPELSNKGSYSLSHVYTPNDVRMVIEYARLRGIRVLPEFDTPGHTLSWGKGQKDLLTPCYSRQNKLDSFGPINPTLNTTYSFLTTFFKEISEVFPDQFIHLGGDEVEFKCWESNPKIQDFMRQKGFGTDFKKLESFYIQKVLDIIATINKGSIVWQEVFDDKAKLAPGTIVEVWKDSAYPEELSRVTASGFPVILSAPWYLDLISYGQDWRKYYKVEPLDFGGTQKQKQLFIGGEACLWGEYVDATNLTPRLWPRASAVGERLWSSKDVRDMDDAYDRLTRHRCRMVERGIAAQPLYAGYCNHENM,,14.5 µM,14.5 µM,14.5 µM
